# Patent US20140274782A1, “AFFINITY REAGENTS AND METHODS FOR DETECTION, PURIFICATION, AND PROTEOMIC ANALYSIS OF METHYLATED PROTEINS” (The Board of Trustees of the Leland Stanford Junior …, priority 2013, published 2014)
# T1: G9a and GLP (Homo sapiens, UniProt Q96KQ7+Q9H9B1)
# T1 sequence (Q96KQ7 2-1210 limits assumed): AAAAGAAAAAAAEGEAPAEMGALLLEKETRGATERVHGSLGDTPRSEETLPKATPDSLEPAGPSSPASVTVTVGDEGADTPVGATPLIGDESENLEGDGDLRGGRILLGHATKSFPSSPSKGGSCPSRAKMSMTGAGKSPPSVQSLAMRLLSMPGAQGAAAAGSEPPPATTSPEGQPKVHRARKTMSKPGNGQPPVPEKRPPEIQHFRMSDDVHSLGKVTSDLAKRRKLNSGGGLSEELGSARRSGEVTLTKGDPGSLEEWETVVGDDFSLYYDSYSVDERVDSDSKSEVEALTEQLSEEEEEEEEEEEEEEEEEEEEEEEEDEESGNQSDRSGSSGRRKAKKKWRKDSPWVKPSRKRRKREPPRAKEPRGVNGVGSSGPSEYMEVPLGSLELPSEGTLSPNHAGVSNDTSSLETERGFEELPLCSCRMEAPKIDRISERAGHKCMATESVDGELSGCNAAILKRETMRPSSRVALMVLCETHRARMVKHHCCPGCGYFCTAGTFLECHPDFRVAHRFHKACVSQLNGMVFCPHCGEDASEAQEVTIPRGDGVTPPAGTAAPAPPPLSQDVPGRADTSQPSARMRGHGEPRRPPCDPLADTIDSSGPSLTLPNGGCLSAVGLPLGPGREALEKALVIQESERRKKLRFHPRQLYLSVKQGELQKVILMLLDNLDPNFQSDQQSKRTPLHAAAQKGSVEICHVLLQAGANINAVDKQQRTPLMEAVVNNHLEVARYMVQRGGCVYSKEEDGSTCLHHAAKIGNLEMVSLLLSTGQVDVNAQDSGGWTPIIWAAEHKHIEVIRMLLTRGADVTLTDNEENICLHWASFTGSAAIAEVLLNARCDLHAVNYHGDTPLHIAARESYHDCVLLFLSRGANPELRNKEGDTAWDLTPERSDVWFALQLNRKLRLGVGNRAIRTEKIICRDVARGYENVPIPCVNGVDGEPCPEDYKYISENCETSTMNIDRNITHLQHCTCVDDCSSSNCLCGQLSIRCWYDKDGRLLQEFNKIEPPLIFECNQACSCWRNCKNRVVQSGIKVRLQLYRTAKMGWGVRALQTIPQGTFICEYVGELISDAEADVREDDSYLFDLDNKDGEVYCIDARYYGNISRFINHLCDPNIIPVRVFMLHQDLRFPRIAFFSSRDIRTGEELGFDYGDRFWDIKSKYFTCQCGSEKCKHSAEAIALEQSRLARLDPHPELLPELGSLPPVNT
# T1 sequence (Q9H9B1 2-1298 limits assumed): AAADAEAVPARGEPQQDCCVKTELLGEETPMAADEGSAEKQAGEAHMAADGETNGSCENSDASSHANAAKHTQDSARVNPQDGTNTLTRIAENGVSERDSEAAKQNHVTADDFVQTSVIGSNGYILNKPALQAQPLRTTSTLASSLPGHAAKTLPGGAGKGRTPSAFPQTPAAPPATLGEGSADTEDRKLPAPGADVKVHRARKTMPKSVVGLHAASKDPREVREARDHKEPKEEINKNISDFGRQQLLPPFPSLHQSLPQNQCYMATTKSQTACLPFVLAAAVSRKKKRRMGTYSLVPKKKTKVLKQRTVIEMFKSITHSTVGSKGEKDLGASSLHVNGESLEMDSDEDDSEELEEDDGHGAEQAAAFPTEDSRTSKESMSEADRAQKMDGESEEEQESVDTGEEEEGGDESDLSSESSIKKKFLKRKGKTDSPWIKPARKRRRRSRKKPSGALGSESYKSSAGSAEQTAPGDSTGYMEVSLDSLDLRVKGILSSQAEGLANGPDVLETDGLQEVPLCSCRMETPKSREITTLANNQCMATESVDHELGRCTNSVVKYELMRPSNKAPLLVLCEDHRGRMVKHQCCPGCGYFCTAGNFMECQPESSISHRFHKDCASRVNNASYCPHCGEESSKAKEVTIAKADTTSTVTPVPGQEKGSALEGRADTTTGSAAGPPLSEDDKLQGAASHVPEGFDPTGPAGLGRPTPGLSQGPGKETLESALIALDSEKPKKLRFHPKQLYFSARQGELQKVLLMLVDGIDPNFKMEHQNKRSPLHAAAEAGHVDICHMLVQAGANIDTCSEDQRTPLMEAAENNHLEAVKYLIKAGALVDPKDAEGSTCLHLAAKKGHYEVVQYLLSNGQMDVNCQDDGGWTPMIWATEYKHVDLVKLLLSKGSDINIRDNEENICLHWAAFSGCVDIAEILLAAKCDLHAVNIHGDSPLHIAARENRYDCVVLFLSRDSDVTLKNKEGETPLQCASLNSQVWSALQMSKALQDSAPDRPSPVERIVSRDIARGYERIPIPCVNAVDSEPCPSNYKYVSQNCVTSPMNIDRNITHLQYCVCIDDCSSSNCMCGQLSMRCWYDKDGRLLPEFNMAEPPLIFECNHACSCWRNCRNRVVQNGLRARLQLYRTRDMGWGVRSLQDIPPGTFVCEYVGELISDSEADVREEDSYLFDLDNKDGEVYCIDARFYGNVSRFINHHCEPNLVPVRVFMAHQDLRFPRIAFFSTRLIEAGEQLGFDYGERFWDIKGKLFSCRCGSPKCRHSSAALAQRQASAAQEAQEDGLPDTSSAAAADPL
# Tests used:
# 3×MBT domain of L3MBTL1 = assay: Triple SILAC pull-down, 3xMBT/3xMBTD355N ratio (cytoplasmic, nuclear and chromatin fractions of 293T cells); assay type: binding, human; conditions: SILAC ratio, pull-down 3xMBT vs 3xMBTD355N; for 3xMBT/D355N UNC Heavy: experiment with UNC0638 in heavy SILAC media; for 3xMBT/D355N UNC Light: experiment with UNC0638 in light SILAC media;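 for all read-outs here: proteins quantified with MaxQuant, requiring at least two unique peptides and quantification in both label directions, normalized to the mean of proteins from a digested loading control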
# G9a and GLP = biological target: T1, G9a and GLP; assay: Triple SILAC pull-down after UNC0638 treatment of 293T cells, DMSO/UNC0638 ratio of protein captured by 3×MBT; assay type: cell-based; set-up: endogenous in cells; host or cells: HEK 293T; conditions: for Relative to UNC0638 UNC Heavy / Relative to UNC0638 UNC Light: SILAC ratio DMSO/UNC0638 of protein pulled down with 3xMBT; for Relative to UNC0638 UNC Heavy: UNC0638 in heavy SILAC media; for Relative to UNC0638 UNC Light: UNC0638 in light SILAC media; for Relative to UNC0638 Average: average of UNC Light and UNC Heavy experiments;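 for all read-outs here: mass spectrometry (Q-Exactive) SILAC quantitation, DMSO/UNC0638 ratio computed after subtracting 3×MBTD355N mutant pull-down background, only proteins with at least twofold 3×MBT over mutant signal considered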
Molecule,3xMBT/D355N UNC Heavy (3×MBT domain of L3MBTL1) [log base 2],3xMBT/D355N UNC Light (3×MBT domain of L3MBTL1) [log base 2],Relative to UNC0638 UNC Heavy (G9a and GLP) [log base 2],Relative to UNC0638 UNC Light (G9a and GLP) [log base 2],Relative to UNC0638 Average (G9a and GLP) [log base 2]
"RCC1 (protein, UniProt P18754 2-421, looked up) Regulator of chromosome …: SPKRIAKRRSPPADAIPKSKKVKVSHRSHSTEPGLVLTLGQGDVGQLGLGENVMERKKPALVSIPEDVVQAEAGGMHTVCLSKSGQVYSFGCNDEGALGRDTSVEGSEMVPGKVELQEKVVQVSAGDSHTAALTDDGRVFLWGSFRDNNGVIGLLEPMKKSMVPVQVQLDVPVVKVASGNDHLVMLTADGDLYTLGCGEQGQLGRVPELFANRGGRQGLERLLVPKCVMLKSRGSRGHVRFQDAFCGAYFTFAISHEGHVYGFGLSNYHQLGTPGTESCFIPQNLTSFKNSTKSWVGFSGGQHHTVCMDSEGKAYSLGRAEYGRLGLGEGAEEKSIPTLISRLPAVSSVACGASVGYAVTKDGRVFAWGMGTNYQLGTGQDEDAWSPVEMMGKQLENRVVLSVSSGGQHTVLLVKDKEQS",2.15,2.25,0.18,0.29,0.24
"CNN3 (protein, UniProt Q15417 1-329, looked up) Calponin-3: MTHFNKGPSYGLSAEVKNKIASKYDHQAEEDLRNWIEEVTGMSIGPNFQLGLKDGIILCELINKLQPGSVKKVNESSLNWPQLENIGNFIKAIQAYGMKPHDIFEANDLFENGNMTQVQTTLVALAGLAKTKGFHTTIDIGVKYAEKQTRRFDEGKLKAGQSVIGLQMGTNKCASQAGMTAYGTRRHLYDPKMQTDKPFDQTTISLQMGTNKGASQAGMLAPGTRRDIYDQKLTLQPVDNSTISLQMGTNKVASQKGMSVYGLGRQVYDPKYCAAPTEPVIHNGSQGTGTNGSEISDSDYQAEYPDEYHGEYQDDYPRDYQYSDQGIDY",2.36,2.35,0.61,−0.15,0.23
"SRP9 (protein, UniProt P49458 2-86, looked up) Signal recognition particle 9 …: PQYQTWEEFSRAAEKLYLADPMKARVVLKYRHSDGNLCVKVTDDLVCLVYKTDQAQDVKKIEKFHSQLMRLMVAKEARNVTMETE",1.88,1.52,0.46,0.01,0.23
"SAFB (protein, UniProt Q15424 2-915, looked up) Scaffold attachment factor B1: AETLSGLGDSGAAGAAALSSASSETGTRRLSDLRVIDLRAELRKRNVDSSGNKSVLMERLKKAIEDEGGNPDEIEITSEGNKKTSKRSSKGRKPEEEGVEDNGLEENSGDGQEDVETSLENLQDIDIMDISVLDEAEIDNGSVADCVEDDDADNLQESLSDSRELVEGEMKELPEQLQEHAIEDKETINNLDTSSSDFTILQEIEEPSLEPENEKILDILGETCKSEPVKEESSELEQPFAQDTSSVGPDRKLAEEEDLFDSAHPEEGDLDLASESTAHAQSSKADSLLAVVKREPAEQPGDGERTDCEPVGLEPAVEQSSAASELAEASSEELAEAPTEAPSPEARDSKEDGRKFDFDACNEVPPAPKESSTSEGADQKMSSPEDDSDTKRLSKEEKGRSSCGRNFWVSGLSSTTRATDLKNLFSKYGKVVGAKVVTNARSPGARCYGFVTMSTAEEATKCINHLHKTELHGKMISVEKAKNEPVGKKTSDKRDSDGKKEKSSNSDRSTNLKRDDKCDRKDDAKKGDDGSGEKSKDQDDQKPGPSERSRATKSGSRGTERTVVMDKSKGVPVISVKTSGSKERASKSQDRKSASREKRSVVSFDKVKEPRKSRDSESHSRVRERSEREQRMQAQWEREERERLEIARERLAFQRQRLERERMERERLERERMHVEHERRREQERIHREREELRRQQELRYEQERRPAVRRPYDLDRRDDAYWPEAKRAALDERYHSDFNRQDRFHDFDHRDRGRYPDHSVDRREGSRSMMGEREGQHYPERHGGPERHGRDSRDGWGGYGSDKRMSEGRGLPPPPRRDWGDHGRREDDRSWQGTADGGMMDRDHKRWQGGERSMSGHSGPGHMMNRGGMSGRGSFAPGGASRGHPIPHGGMQGGFGGQSRGSRPSDARFTRRY",2.38,2.76,0.11,0.35,0.23
"PPP1CB (protein, UniProt P62140 2-327, looked up) Serine/threonine-protein …: ADGELNVDSLITRLLEVRGCRPGKIVQMTEAEVRGLCIKSREIFLSQPILLELEAPLKICGDIHGQYTDLLRLFEYGGFPPEANYLFLGDYVDRGKQSLETICLLLAYKIKYPENFFLLRGNHECASINRIYGFYDECKRRFNIKLWKTFTDCFNCLPIAAIVDEKIFCCHGGLSPDLQSMEQIRRIMRPTDVPDTGLLCDLLWSDPDKDVQGWGENDRGVSFTFGADVVSKFLNRHDLDLICRAHQVVEDGYEFFAKRQLVTLFSAPNYCGEFDNAGGMMSVDETLMCSFQILKPSEKKAKYQYGGLNSGRPVTPPRTANPPKKR",2.35,2.55,0.28,0.18,0.23
